Test results from patent US20110065645A1, “Compositions and Methods for Modulating Neuron Degeneration and Neuron Guidance” (The Regents of the University of California, priority 2009, published 2011).

Assays:
Type in all cases: cell-based
[1] = tested on: cortical neurons; experiment: Cortical neuron death/survival assay under PKCζ inhibition (Tuj1, TUNEL, DAPI staining)
From the text: 1. PKCζ is required for survival of cortical neurons. E15.5 cortical neurons were dissociated and cultured for 2 days in the presence of various concentrations of a cell membrane penetrating myristoylated peptide derived in the pseudosubstrate domain of PKC (FIGS. 12A-12D). This peptide is a specific inhibitor of PKCζ.
2. Axon degeneration procedes cell body death when PKC is inhibited. We examined the timing of axon degeneration and cell body death. […] The death induced by PKCζ inhibition is much faster than Aβ peptide induced neuronal death (FIG. 12D), probably because the PKCζ is an essential kinase and peptide inhibition causes instant death, whereas Aβ has to bind to cell surface receptor and trigger a signaling cascade to cause death, which requires a longer time.
3. Wnts are trophic factors for cortical neurons. […] Nuclear shrinkage (pyknosis) is a hallmark of neuronal cell death. Using DAPI staining, we can visualize the cell nuclei (FIG. 14B). […] Initial cortical axons and dendrite form and grow but axons start to disintegrate at E18.5 (FIG. 14D, from Wang et al 2006),^(13) (FIGS. 12F, 12K). Based on our preliminary results, we propose that Wnts are not only axon guidance molecules but also regulate neuronal survival and axon degeneration acting via PKC (FIG. 15).
3. Survival and cell death assays for screening of monoclonal antibodies and small compounds. We use the same cell death/survival assay as described in FIGS. 12A-14D and use microtubule staining to analyze the integrity of microtubules, DAPI stain to measure the size of cell nuclei and TUNEL staining to assay cell death. Microtubule disassembly is quantified by staining intensity of Tuj1 and Tau antibodies. The size of cell nuclei is binned into difference sizes and the distribution of the nuclei size is used as quantification of pyknosis (FIG. 14C).

[2] = tested on: β-catenin; experiment: β-catenin immunostaining in commissural axon growth cones; conditions: bath application; LiCl 2 mM
From the text: To understand how atypical PKC/Par pathway regulates axon guidance, we set out to determine the subcellular localization of aPKC, their substrates and downstream cellular effectors. […] Thus, our high-resolution confocal imaging detects a tendency of β-catenin being concentrated to one side of the growth cone (FIG. 9A). It is possible that there is low level of Wnt proteins in the culture (many neurons express Wnts). […] Therefore, it is also possible that intrinsic aPKC signaling can create chirality within the growth cone with out extrinsic signals. Such intrinsic polarity may then robustly regulate cellular morphology upon directional instructions from the environment such as a Wnt gradient. It is well known that GSK3β phosphorylates β-catenin, which then leads to proteosome-mediated degradation of β-catenin. And it is also known that GSK3β is phosphorylated and inhibited by PKCζ^(1,2). Therefore, inhibiting GSK3β or the proteosome activity generally should increase β-catenin level throughout the growth cone, canceling the asymmetry. […] We are now testing the hypothesis that Wnt proteins may locally activate PKCζ, which then inhibits GSK3β and locally stabilizes β-catenin, which is part of the asymmetric cellular mechanism leading to directional choice of a growth cone. We examine the localization of β-catenin in post-crossing commissural axon growth cones in the “post-crossing” assay and “open-book” assays.

[3] = tested on: JNK; experiment: Phospho-Jun immunoblot in HEK293T cells expressing Fzd3-mCherry; conditions: Wnt5a added
From the text: Vgl2 antagonizes Dvl1's feedback inhibition of Fzd3 mediated Wnt/PCP Signaling. To elucidate how core PCP components function cell autonomously, we first explored how Dvl1, Vgl2 and Fzd3 interact with each other. It is known that Dvl is a central cytoplamsic molecule in the activation of Wnt-PCP signaling. In non-canonical signaling, Fzd is thought recruit Dvl to the plasma membrane and Dvl then subsequently activates the downstream signaling, such as Jun N terminal kinases (JNK), Rac1 and RhoA. […] However, upon co-expression of Fzd3 and Dvl1, we found a surprising Wnt5a-dependent down regulation of p-Jun level (FIG. 17A, lanes 5-7, quantified in FIG. 17B), uncovering a novel feedback inhibition mechanism in PCP signaling. With 30 minutes of Wnt5a addition p-Jun signal is essentially gone in Fzd3 and Dvl1 co expressing cells, (FIG. 17A lane 7).
Surface biotinylation and immunopreciptiation. […] For the membrane immunoprecipitation, 600 ug of protein extracts were incubated overnight and retrieved by NeutrAvidin-coated Agarose beads (Pierce), the bound fraction was boiled and loaded on SDS-PAGE gel and analyzed by western blot analysis. […]

B1: Wnt5a: recombinant Wnt5a protein (R&D Systems) (protein, UniProt P41221 62-380, looked up)
Protein Wnt-5a: IIGAQPLCSQLAGLSQGQKKLCHLYQDHMQYIGEGAKTGIKECQYQFRHRRWNCSTVDNTSVFGRVMQIGSRETAFTYAVSAAGVVNAMSRACREGELSTCGCSRAARPKDLPRDWLWGGCGDNIDYGYRFAKEFVDARERERIHAKGSYESARILMNLHNNEAGRRTVYNLADVACKCHGVSGSCSLKTCWLQLADFRKVGDALKEKYDSAAAMRLNSRGKLVQVNSRFNSPTTQDLVYIDPSPDYCVRNESTGSLGTQGRLCNKTSEGMDGCELMCCGRGYDQFKTVQTERCHCKFHWCCYVKCKKCTEIVDQFVCK
In the case of B1, the “axon degeneration / reduction of microtubule staining (Tuj1)” value ([1]; 5 um pseudosubstrate peptide) is reported as “much less degeneration was seen”, the “axons remaining judged by Tuj1 staining” value ([1]; 10 um pseudosubstrate peptide) is reported as “more axons still remain” and the “cell death induced by PKC inhibition” value ([1]; pretreatment before pseudosubstrate peptide) is reported as “block/reduce the cell death”. The “β-catenin level and asymmetry in the growth cone” value [2] was “increased the levels of β-catenin throughout the growth cone” and the p-Jun level [3] was “increased”.
